Substrate: Nc1ncnc2c1ncn2[C@@H]1O[C@H](COP(=O)(O)OP(=O)(O)OP(=O)(O)O)[C@@H](O)[C@H]1O
Assay: HPLC kinase assay, Michaelis-Menten fit
Format: biochemical, Arabidopsis thaliana
Settings: 1 mM Ins(1,4,6)P3, ATP 0-5 mM, 6 mM MgCl2, 20 mM HEPES pH 7.3, 25 °C, 3 µM enzyme

B1: AtITPK4 (Arabidopsis thaliana) (protein)
chain: MKGVLLDESVLFSPESEDSSPSLRESVPSLLRLLRYSMIRTGISYGLDLPENKVDLLRKTAAEYSINCLPLETSLTSVTFGDTLKAWYSDGSILYVASSRKEEILRELSPSQLVVLLDVEGDSLEDPNIIHIHSLEELPMTICCINKKAMGDGAAIVAYIMKPSRVEDFAKRGALPMYPTSCGLIFLPLMFEFPLASQLKHADIIFHKATDEILSIELNCSDSKSSVAVTFSTGMEKLKKYMEDQNACAIVDPIRNIYPVVDRLKMQHILLGLEGLGAAGRKIRGACFLKIDSYDEPDLAQNLSRAGLSLPCIVKPQVACGVADAHSMAIVFRVEDFKNLNTPVPAIIQEYVDHSSRIFKFYVLGETIFHAVKKSIPSSSSLRKSAEENGLKPILFDSLKSLPVDSANQNPVSEIDLELVTEAATWLRKKLDLTIFGFDVVIQEGTGDHVIVDLNYLPSFKEVPDNIAVPAFWEAIRNRFDQHVQEKH
notes: full-length; pOPINE, non-cleavable C-terminal 6xHis tag kept; Ni-NTA purified; HAD-like domain 1-150, ATP-grasp kinase domain from 151; no evidence of homo-oligomers
Km: 52 ± 7 µM

— publication PMC7614388, “Diversification in the inositol tris/tetrakisphosphate kinase (ITPK) family: crystal structure and enzymology of the outlier AtITPK4” (Biochemical Journal, 2023)
